Tests used:
[1] = molecular target: T1, PCSK9 protein inserted with biotin receiving peptide BP15 and His-tag: PCSK9-BP15-His6 (human, UniProt Q8NBP7 153-692; A8T644 31-152, biotin on the BP15 biotin receiving peptide (labeled during the expression)); experiment: ELISA, biotin PCSK9 on streptavidin plate
T1 construct: also called WT PCSK9; PCSK9 WT
Experimental: The binding ability of anti-PCSK9 antibodies of the present invention to PCSK9 protein (WT PCSK9, SEQ ID NO: 5) was detected by measuring the amounts of antibodies binding to PCSK9 immobilized on the ELISA plate.
(§1) Streptavidin (sigma, CAT #S4762) was diluted to 2 μg/ml with PBS and was added into a 96-well ELISA plate, at 4° C. for overnight. The plate was washed and then was blocked with Tris buffer (including 0.9 mM CaCl₂, 0.05% Tween 20 and 5% skim milk) at 37° C. for 2 hours. Then the plate was washed again and 100 μl/well of biotin-labeled PCSK9 (produced in-house, diluted with Tris buffer containing 0.9 mM CaCl₂, 0.05% Tween 20 and 1% skim milk) was added and incubated at 37° C. for 1 hour. After the wash step various concentrations of diluted PCSK9 antibody samples was added to the plate and incubated at 37° C. for 1 hour. […] Then the plate was washed and tetramethyl brenzidine solution was added for development. Finally, the stop buffer was added and the OD450 value was measured on the Microplate reader, and then EC50 was calculated.

[2] = molecular target: T2, PCSK9 D374Y mutant protein inserted with biotin receiving peptide BP15 and His-tag: PCSK9-D374Y-BP15-His6 (human, UniProt Q8NBP7 153-692; A8T644 31-152, biotin on the BP15 biotin receiving peptide); experiment: ELISA, biotin PCSK9-Y on streptavidin plate
T2 construct: also called PCSK9-Y; mutant PCSK9
Experimental: The binding ability of anti-PCSK9 antibodies of the present invention to PCSK9-Y protein (mutant PCSK9, SEQ ID NO: 6) was detected by measuring the amounts of antibodies binding to PCSK9-Y immobilized on the ELISA plate.
as §1, with “hours. The” for “hours. Then the”, “washed” for “washed again”, “biotin-labeled PCSK9-Y” for “biotin-labeled PCSK9”, “wash step,” for “wash step”, “samples were” for “samples was”

[3] = molecular target: T1, PCSK9 protein inserted with biotin …; experiment: competition ELISA, LDLR-FC coated, biotin PCSK9 + antibody
Experimental: The blocking ability of PCSK9 antibodies according to the present invention for the binding of LDLR-FC (produced in-house, with sequence of SEQ ID NO: 8) and PCSK9 (SEQ ID NO: 5) was tested by measuring the amount of PCSK9 binding to LDLR in the presence of the antibodies.
(§2) LDLR-FC was diluted to 5 μg/ml with phosphate buffer and was added into the 96-well ELISA plate, kept at 4° C. overnight. The plate was washed and then blocked with Tris buffer (including 0.9 mM CaCl₂, 0.05% Tween 20 and 5% skim milk) at 37° C. for 2 hours. Then the plate was washed and 100 μl/well of mixture of biotin-labeled PCSK9 (diluted to 2 μg/ml with Tris buffer containing 0.9 mM CaCl₂, 0.05% Tween 20 and 1% skim milk) and antibody samples (diluted with Tris buffer containing 0.9 mM CaCl₂, 0.05% Tween 20 and 1% skim milk) was added and incubated at 37° C. for 1 hour. Then the plate was washed again and horseradish peroxidase-streptavidin (sigma, CAT #S2438) was added and incubated at 37° C. for 1 hour. Then the plate was washed and tetramethyl brenzidine solution was added for development. Finally, the stop buffer was added and OD450 value was measured on the Microplate reader, then IC50 value was calculated.

[4] = molecular target: T2, PCSK9 D374Y mutant protein inserted …; experiment: competition ELISA, LDLR-FC coated, biotin PCSK9-Y + antibody
Experimental: The blocking ability of PCSK9 antibodies according to the present invention for the binding of LDLR-FC and PCSK9-Y (mutant PCSK9, SEQ ID NO: 6) was tested by measuring the amount of PCSK9-Y binding to LDLR in the presence of the antibodies.
as §2, with “LDLR-FC (produced in-house, with sequence of SEQ ID NO: 8)” for “LDLR-FC”, “to 2” for “to 5”, “plate,” for “plate, kept”, “biotin-labeled mutant” for “biotin-labeled”, “to 1” for “to 2”

Binder | EC50 [1] [µg/mL] | EC50 [2] [µg/mL] | IC50 [3] [µg/mL] | IC50 [4] [µg/mL]
h011-3050 (antibody, V domains shown) VH: QVQLVQSGAEVKKPGASVKVSCKASGYTFTGYTIHWVRQAPGQGLEWMGEILPSSTYTKFNQKFKDRVTMTRDTSISTAYMELSRLRSDDTAVYYCARERIYSNYWFFDVWGQGTTVTVSS VL: DIVMTQSPSSLSASVGDRVTITCKASQNVYTAVAWYQQKPGKSPKLLIYSASNRYTGVPSRFSGSGSGTDFTLTISSLQPEDFATYFCQQYSSYPYTFGGGTKVEIK | 0.00312 | 0.00525 | 0.598 | 0.123
h011-3065 (antibody, V domains shown) VH: QVQLVQSGAEVKKPGASVKVSCKASGYTFTGYDIHWVRQAPGQGLEWMGYINPSSTYTKFNQKFKDRVTMTRDTSISTAYMELSRLRSDDTAVYYCARERIYSNYWFFDVWGQGTTVTVSS VL: DIVMTQSPSSLSASVGDRVTITCKASQNVYTAVAWYQQKPGKSPKLLIYSASNRYTGVPSRFSGSGSGTDFTLTISSLQPEDFATYFCQQYSSYPYTFGGGTKVEIK | 0.00539 | 0.0109 | 0.73 | 0.312
h011-3073 (antibody, V domains shown) VH: QVQLVQSGAEVKKPGASVKVSCKASGYTFTGYTIHWVRQAPGQGLEWMGYINPSSTYTKFNQKFKDRVTMTRDTSISTAYMELSRLRSDDTAVYYCARENIFSNYWFFDRWGQGTTVTVSS VL: DIVMTQSPSSLSASVGDRVTITCKASQNVYTAVAWYQQKPGKSPKLLIYSASNRYTGVPSRFSGSGSGTDFTLTISSLQPEDFATYFCQQYSSYPYTFGGGTKVEIK | 0.00389 | 0.0123 | 0.604 | 0.129
h011-3093 (antibody, V domains shown) VH: QVQLVQSGAEVKKPGASVKVSCKASGYTFTGYTIHWVRQAPGQGLEWMGYINPSSTYTKFNQKFKDRVTMTRDTSISTAYMELSRLRSDDTAVYYCARERIYSNYWFFDVWGQGTTVTVSS VL: DIVMTQSPSSLSASVGDRVTITCKASQNVYTAVAWYQQKPGKSPKLLIYEMVNRYTGVPSRFSGSGSGTDFTLTISSLQPEDFATYFCQQYSSYPYTFGGGTKVEIK | 0.00381 | 0.00989 | 0.706 | 0.287
h011-3111 (antibody, V domains shown) VH: QVQLVQSGAEVKKPGASVKVSCKASGYTFTGYTIHWVRQAPGQGLEWMGYINPSSTYTKFNQKFKDRVTMTRDTSISTAYMELSRLRSDDTAVYYCARERIYSNYWFFDVWGQGTTVTVSS VL: DIVMTQSPSSLSASVGDRVTITCKASQNVYWEVDWYQQKPGKSPKLLIYSASNRYTGVPSRFSGSGSGTDFTLTISSLQPEDFATYFCQQYSSYPYTFGGGTKVEIK | 0.00498 | 0.00681 | 1.22 | 0.226
h011-3118 (antibody, V domains shown) VH: QVQLVQSGAEVKKPGASVKVSCKASGYTFTGYTIHWVRQAPGQGLEWMGYINPSSTYTKFNQKFKDRVTMTRDTSISTAYMELSRLRSDDTAVYYCARERIYSNYWFFDVWGQGTTVTVSS VL: DIVMTQSPSSLSASVGDRVTITCKASQNVYWEVVWYQQKPGKSPKLLIYSASNRYTGVPSRFSGSGSGTDFTLTISSLQPEDFATYFCQQYSSYPYTFGGGTKVEIK | 0.00351 | 0.00851 | 1.04 | 0.23

More lines, now with the values ahead:

EC50 [1] [µg/mL] | EC50 [2] [µg/mL] | IC50 [3] [µg/mL] | IC50 [4] [µg/mL] | Binder
0.00369 | 0.00606 | 0.542 | 0.162 | h011-3058 (antibody, V domains shown) VH: QVQLVQSGAEVKKPGASVKVSCKASGYTFTGYTIHWVRQAPGQGLEWMGEINPSGTYTKFNQKFKDRVTMTRDTSISTAYMELSRLRSDDTAVYYCARERIYSNYWFFDVWGQGTTVTVSS VL: DIVMTQSPSSLSASVGDRVTITCKASQNVYTAVAWYQQKPGKSPKLLIYSASNRYTGVPSRFSGSGSGTDFTLTISSLQPEDFATYFCQQYSSYPYTFGGGTKVEIK
0.00511 | 0.0144 | 0.629 | 0.228 | h011-3070 (antibody, V domains shown) VH: QVQLVQSGAEVKKPGASVKVSCKASGYTFTGYTIHWVRQAPGQGLEWMGYINPSSTYTKFNQKFKDRVTMTRDTSISTAYMELSRLRSDDTAVYYCARENIYFNYWFFDRWGQGTTVTVSS VL: DIVMTQSPSSLSASVGDRVTITCKASQNVYTAVAWYQQKPGKSPKLLIYSASNRYTGVPSRFSGSGSGTDFTLTISSLQPEDFATYFCQQYSSYPYTFGGGTKVEIK
0.00441 | 0.0132 | 0.582 | 0.391 | h011-3095 (antibody, V domains shown) VH: QVQLVQSGAEVKKPGASVKVSCKASGYTFTGYTIHWVRQAPGQGLEWMGYINPSSTYTKFNQKFKDRVTMTRDTSISTAYMELSRLRSDDTAVYYCARERIYSNYWFFDVWGQGTTVTVSS VL: DIVMTQSPSSLSASVGDRVTITCKASQNVYTAVAWYQQKPGKSPKLLIYEASNRYTGVPSRFSGSGSGTDFTLTISSLQPEDFATYFCQQYSSYPYTFGGGTKVEIK
0.00538 | 0.00711 | 0.911 | 0.213 | h011-3120 (antibody, V domains shown) VH: QVQLVQSGAEVKKPGASVKVSCKASGYTFTGYTIHWVRQAPGQGLEWMGYINPSSTYTKFNQKFKDRVTMTRDTSISTAYMELSRLRSDDTAVYYCARERIYSNYWFFDVWGQGTTVTVSS VL: DIVMTQSPSSLSASVGDRVTITCKASQNVYTAVAWYQQKPGKSPKLLIYSASNRYTGVPSRFSGSGSGTDFTLTISSLQPEDFATYFCQQFSWFPYTFGGGTKVEIK
0.00378 | 0.00695 | 0.662 | 0.174 | h011-3121 (antibody, V domains shown) VH: QVQLVQSGAEVKKPGASVKVSCKASGYTFTGYTIHWVRQAPGQGLEWMGYINPSSTYTKFNQKFKDRVTMTRDTSISTAYMELSRLRSDDTAVYYCARERIYSNYWFFDVWGQGTTVTVSS VL: DIVMTQSPSSLSASVGDRVTITCKASQNVYTAVAWYQQKPGKSPKLLIYSASNRYTGVPSRFSGSGSGTDFTLTISSLQPEDFATYFCQQLSSQPETFGGGTKVEIK

— patent US20200270365A1 (JIANGSU HENGRUI MEDICINE, published 2020)
